Measured values taken from patent US20180188195A1, “SYSTEMS AND METHODS FOR MULTIPLEXED HEMOSTASIS TEST PANELS” (T2 Biosystems, Inc., priority 2015, published 2018).

B1: tPA: tissue plasminogen activator (tPA, Alteplase, Genentech), inducer of fibrinolysis (protein, UniProt P00750 36-562, looked up)
Tissue-type plasminogen …: SYQVICRDEKTQMIYQQHQSWLRPVLRSNRVEYCWCNSGRAQCHSVPVKSCSEPRCFNGGTCQQALYFSDFVCQCPEGFAGKCCEIDTRATCYEDQGISYRGTWSTAESGAECTNWNSSALAQKPYSGRRPDAIRLGLGNHNYCRNPDRDSKPWCYVFKAGKYSSEFCSTPACSEGNSDCYFGNGSAYRGTHSLTESGASCLPWNSMILIGKVYTAQNPSAQALGLGKHNYCRNPDGDAKPWCHVLKNRRLTWEYCDVPSCSTCGLRQYSQPQFRIKGGLFADIASHPWQAAIFAKHRRSPGERFLCGGILISSCWILSAAHCFQERFPPHHLTVILGRTYRVVPGEEEQKFEVEKYIVHKEFDDDTYDNDIALLQLKSDSSRCAQESSVVRTVCLPPADLQLPDWTECELSGYGKHEALSPFYSERLKEAHVRLYPSSRCTSQHLLNRTVTDNMLCAGDTRSGGPQANLHDACQGDSGGPLVCLNDGRMTLVGIISWGLGCGQKDVPGVYTKVTNYLDWIRDNMRP
modifications: alteplase
B2: abciximab (antibody, chains of the INN, looked up, V domains shown)
VH: EVQLQQSGTVLARPGASVKMSCEASGYTFTNYWMHWVKQRPGQGLEWIGAIYPGNSDTSYIQKFKGKAKLTAVTSTTSVYMELSSLTNEDSAVYYCTLYDGYYVFAYWGQGTLVTVSA
VL: EIVLTQSPVTLSVTPGDSVSLSCRASRDISNNLHWFQQTSHESPRLLIKYASQSMSGIPSRFSGSGSGTDFTLSINSVETEDFGMYFCQQTNSWPYTFGGGTKLEIK
modifications: Fab

Columns and labels:
Format in all cases: cell-based, human
[1] = system: re-calcified citrated whole blood; assay: T2MR fibrinolysis of thrombin-clotted re-calcified citrated blood after tPA addition
Experimental: In one embodiment, blood clotting was initiated by addition of 2 μL of a 0.2 M CaCl2 solution and 2 μL of thrombin (Sigma-Aldrich, St. Louis, Mo., final concentration 0.1-3.0 U/ml) to 34 μL of blood in a 200 μL PCR tube (Eppendorf, Hauppauge, N.Y.). All components were pre-warmed for 1 min at 37° C. before mixing. Samples were mixed by three aspiration and dispersion cycles using a pipette, then put into the T2MR reader for measurement. Typical run length was 30 min with a 10 sec sampling rate. For some experiments, data collection time was extended to 1 hr.
To establish T2MR signatures for fibrinolysis, tissue plasminogen activator (tPA, Alteplase, Genentech, South San Francisco, Calif.) was added to samples clotted by thrombin. Blood clotting was initiated as described above, and the sample was incubated for […] to allow for complete clot contraction. Then, 0.5-1 μM tPA was added to clotted and contracted samples. Care was taken not to disturb clots, which were usually attached to the tube wall. The pipette tip was carefully placed into the visible serum layer on the tube side opposite to the contracted clot, and 3 μL of tPA solution was added with a single dispensing of the pipettor. The tPA solutions were made from a stock solution prepared according to manufacturer instructions using 0.15 M sodium chloride, pH 7.4.
In one embodiment, the dependencies of the T2MR signals during clotting of re-calcified citrated blood samples from healthy donors initiated by adding 3 U/ml thrombin was measured. Thrombin activates platelets and cleaves fibrinogen to form a three-dimensional fibrin network stabilized by factor XIIIa. Addition of thrombin led to rapid formation of a gelatinous meshwork that filled the sample volume accompanied by a small, rapid decrease in the T2MR signal over tens of seconds due to the sample transitioning from a liquid to gel state. In the initial gel state, only one relaxation rate was observed (FIG. 2, part a), reflecting uniform distribution of erythrocytes and other blood components. Approximately four minutes after thrombin addition, the T2MR signal split into two peaks representing distinct water populations in slow exchange with each other. […]
We then assessed the sensitivity of the T2MR platform to fibrinolysis by adding tissue-type plasminogen activator (tPA) to the clotted samples 30 minutes after thrombin.
The compartment generating the signal in FIG. 2, part b, at 300 ms that dropped to 200 ms was assessed by testing two conditions: (1) re-calcified citrated whole blood activated with thrombin to form a contracted clot and (2) re-calcified citrated whole blood activated with thrombin followed by addition of tPA. After incubation, samples were analyzed before and after mixing with a pipette to re-suspend unbound erythrocytes. […]

citrated whole blood [2] = assay: T2In platelet activity and fibrinolysis measurement with tPA or aprotinin; conditions: ellagic acid with CaCl2; tPA 0, 2 or 4 nM or aprotinin control; 65 min
Experimental: The T2Ex or the T2In protocols were also used with the addition of aprotinin (T2Ex-A and T2In-A) respectively. For the intrinsic pathway measurement (T2In), intrinsic activator solution was prepared by mixing ellagic acid stock and CaCl2. For the intrinsic pathway measurement that includes aprotinin (T2In-A), add 41.7 μL of a 1 mg/mL stock of aprotinin to 1 mL intrinsic activator solution. 36.7 μL citrated whole blood that had been warmed to approximately 37° C. for three minutes was added and mixed. 5 μL of intrinsic activator solution with aprotinin that had been warmed to approximately 37° C. for one minute was added. The sample was mixed and read in the T2reader. The clotting time measurement was obtained after 5 minutes and then the platelet activity and fibrinolysis measurements were obtained over the following 60 minutes. In a separate assay the effects of the amounts of activator were tested.
Platelet activity and fibrinolysis measurements for the 3 donor samples in the T2In assay are shown in FIG. 15a-15b. tPA levels of 0 nM, 2 nM or 4 nM were added to citrated whole blood. Blood samples (36.7 μL) were activated by addition of 5 μL ellagic acid solution with CaCl2. T2MR data was collected for 65 min. The addition of tPA cleaves the fibrin mesh of the clot and results in clot dissolution over time. This is detected by T2MR by the change in T2 value of the serum peak (third phase). […]

citrated whole blood [3] = assay: T2In T2MR clotting time, intrinsic pathway activator (ellagic acid); conditions: T2In, 3 donors, different tPA concentrations, with or without aprotinin
Text: In another embodiment a coagulopathy panel is used with an intrinsic activator such as ellagic acid. The common range of clotting time is often between 100 and 120 seconds for normal blood. However, it can be 22-30 seconds, 30-44 seconds, 44-60 seconds, 60-80 seconds, 80-100 seconds, up to 2 times to 4 times the range of normal T2MR clotting times for the extrinsic activator. The abnormal clotting time ranges are above or below the normal range. The total range easily measured is 8-300 seconds though a measurement up to or beyond 1000 seconds could be performed with modified acquisition. If aprotinin is added in addition to intrinsic activator, clotting times can often be from 110.9-151.0 seconds in normal blood.
The general intrinsic activator protocol is as follows (T2In panel): an intrinsic activator solution was prepared by mixing tissue factor reagent with CaCl2. To 36.7 μL of citrated whole blood (warmed to approximately 37° C. for 3 minutes and mixed) was added 5 μL of the intrinsic activator solution (also been warmed to approximately 37° C. for one minute). The resulting solution was mixed and subjected to T2 measurements for 50 minutes. […] The T2MR of the sample was measured for 30 minutes.
The T2Ex or the T2In protocols were also used with the addition of aprotinin (T2Ex-A and T2In-A) respectively. […] The sample was mixed and read in the T2reader. […]

citrated blood [4] = assay: T2MR clot strength (DiffT2), calcium and kaolin activation of abciximab-treated citrated blood; conditions: abciximab 4 or 8 μg/ml added ex vivo; 13 minutes after activation; 3 healthy donors
Experimental: (§1) The DiffT2 value was calculated by taking the difference between the upper and middle T2 values in the T2MR signature at a time point 13 minutes after activation. Data are shown here using samples from 3 healthy donors where clot strength was adjusted by ex vivo addition of abciximab (ReoPro) at a level of 0, 4, or 8 μg/ml prior to measurement. All samples containing abciximab were at DiffT2 values of <100 ms or TEG MA values less than 40.
(§2) A 0.5 mg/ml solution of abciximab was prepared by diluting the stock 10 mg/5 ml solution by 1:4 in saline. The abciximab-treated blood samples were incubated for at least 5 min prior to clotting. Clotting was initiated by adding 2 μL 0.2 M CaCl2 and 2 μL TEG kaolin to 34 μL of abciximab-treated blood sample. To compare the T2MR signal to TEG MA, a DiffT2 parameter was calculated by taking the difference in T2 between the upper and middle peaks at a time point 13 min after adding calcium and kaolin. The TEG MA values were measured on the same samples following manufacturer instructions.
(§3) For comparison between T2MR and TEG, calcium and kaolin activation of citrated blood was used and normal donor samples were treated with various amounts of abciximab, an inhibitor of the platelet glycoprotein αIIbβ3 receptor that binds fibrin and is essential for clot contraction.

citrated blood [5] = assay: Thromboelastography maximum amplitude (TEG MA) on the same abciximab-treated samples; conditions: abciximab 4 or 8 μg/ml added ex vivo; 3 healthy donors
Experimental: as §1, §2, §3

citrated whole blood [6] = assay: T2In intrinsic assay for platelet activity, ReoPro titration
Experimental: Citrated whole blood from normal donors was spiked with varying concentrations of the platelet inhibitor ReoPro (Abcixirnab). 5 μL of ellagic acid solution with CaCl2 was used to activate 36.7 μL of blood with or without ReoPro inhibition. T2MR data was collected for 35 minutes. Addition of platelet inhibitor had no effect on T2MR measured clot time or % deltaT2. […] There was some donor to donor differences in responsiveness to ReoPro.

[7] = tPA added 30 minutes after thrombin
[8] = ellagic acid with CaCl2, varying ReoPro concentrations

| Molecule | 200-300 ms signal after mixing ([1]; clotted with thrombin then lysed with tPA, mixed with a pipette) | T2 value of the upper peak after tPA addition [1, 7] | third peak at ~100 ms after tPA addition [1, 7] | T2 value of the middle peak after tPA addition ([1]; tPA added 30 minutes after thrombin, decreased from 250) [ms] | change in T2 value of the serum peak (third phase) (citrated whole blood [2]) | clotting time curves (% deltaT2) (citrated whole blood [3]) | DiffT2 (citrated blood [4]) [ms] | TEG MA (citrated blood [5]) | effect on % deltaT2 (citrated whole blood [6]; [8]) | effect on T2MR measured clot time (citrated whole blood [6]; [8]) | platelet activity measurement (FIG. 27) (citrated whole blood [6]; intrinsic activator, 5 μg/mL and 10 μg/mL ReoPro) |
| --- | --- | --- | --- | --- | --- | --- | --- | --- | --- | --- | --- |
| B1 | disappeared altogether | decreased rapidly | persisted | 175 | larger change | appear to overlay | – | – | – | – | – |
| B2 | – | – | – | – | – | – | < 100 | less than 40 | no effect | no effect | inhibition of platelet activity |
